{
  "source": "the DeepSol protein solubility set",
  "data": [
    {"assay": "soluble on expression in E. coli; label from the status in PepcDB or PDB records", "values": [
      {"sequence": "MGSDKIHHHHHHMNQIDRLLTIMQRLRDPENGCPWDKEQTFATIAPYTLEETYEVLDAIAREDFDDLRGELGDLLFQVVFYAQMAQEEGRFDFNDICAAISDKLERRHPHVFADSSAENSSEVLARWEQIKTEERAQKAQHSALDDIPRSLPALMRAQKIQKRCANVGFDWTTLGPVVDKVYEEIDEVMYEARQAVVDQAKLEEEMGDLLFATVNLARHLGTKAEIALQKANEKFERRFREVERIVAARGLEMTGVDLETMEEVWQQVKRQEIDL", "soluble on expression in E. coli": "not soluble"},
      {"sequence": "MSINGISGASPLVALQGPSASQRPEPVSSTDRAQAPAFSERLGSALEGLAKSQTEAAEKASAFERGEGGNLAEVMVSQQVSSLGFQLALNVRNKALGAYRDIMNMPV", "soluble on expression in E. coli": "not soluble"},
      {"sequence": "MERCGWVSQDPLYIAYHDNEWGVPETDSKKLFEMICLEGQQAGLSWITVLKKRENYRACFHQFDPVKVAAMQEEDVERLVQDAGIIRHRGKIQAIIGNARAYLQMEQNGEPFVDFVWSFVNHQPQVTQATTLSEIPTSTSASDALSKALKKRGFKFVGTTICYSFMQACGLVNDHVVGCCCYPGNKP", "soluble on expression in E. coli": "not soluble"},
      {"sequence": "MQRKLKVTSLEPGTVVITEQAVDTCFKAEFEQIVLGKRVIRKTDLNKKLVQELLLCSAELSEFTTVVGNTMCTLDFYEGQGRLDGALCSYTEKDKQAYLEAAYAAGVRNIEMESSVFAAMCSACGLQAAVVCVTLLNRLEGDQISSPRNVLSEYQQRPQRLVSYFIKKKLSKA", "soluble on expression in E. coli": "not soluble"},
      {"sequence": "MLNILDIITDWIKEILRDCIMGNLDGMFDQINNEVGEVAANVGTTPAAWNAGVFSMIRNLSDT", "soluble on expression in E. coli": "not soluble"},
      {"sequence": "MAHHHHHHMEWVELHDVDPETMSLELPPDMLFGPLEFPKQMRFLLAALRADNELADGYLARVIIDRMDLSLDPPILSEGDFLAAGGKELLDFSVEDFTGTKSRAQRKHIFFQPDQFLQFINIIAAYPTLTEYFVNEKDGVELVFQAYRHSKNPYACVMAMRSLTLFSFTQAVDGTVERRILQSNGVKTIVDAYKQSTGDPTETRFPTLLLSSIMRHYPKEGGKEFIDADGVEAVVNNLNIARYKGIPQHIRVLHDAQRLPKQSIGKKSVDARLEEADFLGVAMGLLDTFPEFYEATGDLLKLLTRVVPAHADPLELLEYRAMPILSKYYVRWREDQSFQTDGTRTLVAKLFELMLNDKTCQRCYDPSVASYELLECLRTAKLAVKDEQEKRVMRFPDPQRQPASAAA", "soluble on expression in E. coli": "soluble"},
      {"sequence": "MGSDKIHHHHHHMNLRGKMIVIKFGGSSLRSEFKSAVSLIKALSEEKDVVVVVSALKGITDLLEKYTDTFDSRYAVEVSKTYLEFGKRMGIDTSSLSPYLKQLFNPPDLPPQALRDYILSIGELLSAAMIAEKANGAVIFPWDLFVAHGSFGNGFIDIKKSKRNVKLVKEALESGKIPIIPGFIANLNGYRVTLGRGGSDYSAVALGVLLNSELVAIMSDVEGIFTADPKMIPYSLLIPYMSYDEILIASKYGMEAIQWKAAKLAKEYEALILFGRASDWRMGTVVSNSSSHMPLLSYDQGKLLVMNMDSEIPYEVVEEGEFWRVYRVPKRDSIKIIKELHRKIIYQENAQLLGRVKA", "soluble on expression in E. coli": "not soluble"},
      {"sequence": "MKFFNREKEINEILLILEEEPNNIYFIYGPLNSGKSTLIREVITNRLDKSKYIPFFIDFRTRNILNVDNFIECLFEVDEKSKIDDFREYAKSLADLLVKGSEEISKYYLGMPIKVPKPFFDRIFSKRDKSADVYQYIEYLFAKLNEKGKKPILIFDELQMIREITLNGNRLLLWSLFQFLVALTKVQHLCHVFCLSSDSLFIEYIYGKAELKGGVDYILVDDFDKKTALKFMDFLAKQKNINLTNEDKELIYSYVGGKAKYIYDVIVKLKAVKDLKYILETKLEEERNHLEELLEKVEEDYEGINYDEVLEALKLFKDNYELPKSKIKRKIRIFLIKENILFLNPQKGTLKPQSYLVWNAIKRML", "soluble on expression in E. coli": "not soluble"},
      {"sequence": "MAHHHHHHMSRMPSTAARSQPYAFGPEGVMLDGGASEGRQNSVEALLAYCAARVAENPSWRTASWQQAGASNASAFRVPVSPRYLANASYAATGSPLCLRAGRIYLTDARIRAGIAEFQAAGLTVLPLTDDVLSRPSSRASKATVRVVPAMAVLLNGAWIATHFFHLVTDALEALRSAYQTWQDGVLLRIPTQTVLLHQPESNWMDRRGDTHGKMELSAALANAFSSPELARGSPYNSSFLFRSQSRHCAELEANATATMASPPPPRRQSPATVSTLCFCDGLLVTTHRLPVLERDILYGIQDWAARQFRASPYGVNRSVQEMERLRLQHALLSSTSTLWSIGTLTAPALSLSYKPRALFVHRTSRVIANASRYAGWMRAAGFRVEEVYLEKHTAAQQYHLGRYADIVVGMHGLGIGHAMWMERSPPRCRTVIEFRPWVIASMPTQPILILEGAMHYHFVTIPPIDVRFGPSVAHPAEERELLLSSARMVNAFRYPSFTDQIAIYDDERVKGVIADVRQHLERCLPP", "soluble on expression in E. coli": "not soluble"},
      {"sequence": "SALTAALSVCPLPSSSFFFAGFLPHKKGRKSRLEFLASIDSTIVLYESPHRIGRLMEEVKEHFPDAQVFAAREITKMHEEYVTGTPDELANHFTGQKQRGEFVVVVHPPDKH", "soluble on expression in E. coli": "not soluble"},
      {"sequence": "MERVRRASHAGSWYTNNARKLDEELDGWLRAAGLTKSPDVRAVIAPHAGYSYSGRCAAYAFGNIDPTNISRVFLLGPSHHYYTPKCALTRATIYSTPIGDLPVDHEVIEELNATGKFDFMDLSVDEAEHSMEMHLPYLSKVFQGHNVKVVPILVGALNSQNEAMYGQLLSKYLDDPKNFFSISSDFCHWGTRFSYTYYDKSHGAIHKSIEALDRMGMEIIETGNPDAFKQYLQEYENTICGRHPISVFLSMLKHCLTKIKIGFVRYEQSSQCKSMRDSSVSYASAAAKVDTPAEEEKD", "soluble on expression in E. coli": "soluble"},
      {"sequence": "MSLNQFTTDLVQALVQKENVTEIFRSHLENAVNTLLASELTAFLDYEKYDRIGFNTGNSRNGSYERTLHTEFGELHLVIPRDRNGDFKQQTVAPYKRSNDTLEAFVIHMFQKGVTTAEIAHLMERMYGHHYTPQTISNMTKVMSEQVEAFRDRTLCARYACVYLDATYIALKRDTVSKEAVYIAVGIREDGSKEVLGYTIAPNESAFVWKELLEDIKSRGVEEILLFISDGLKGISDSVFSIYPASSYQTCCVHLSRTIAHKVRVSDRAEICEDFKSVYRAESLEMGQQALHSFIEKWKSKYPKVTKPLLNNSYLFTFYSFPKSIWRSIYSTNLIESFNKQIKKYSKRKEQFPNEESLERFLVSQFDQYNQRFATRCHIGFDQARAELQMMFKTNEGHHHHHH", "soluble on expression in E. coli": "soluble"},
      {"sequence": "MKSAELKYLDFEDFTKLIALAKEKINPIYSSSFMIYIAAMTGMRFSELLGLTWDNVDFEKGQIYVKRTWDIYKNNFAPTKNDQSVRFLAIDSSTMQVMINYKEQQEKLLKRLEIEPEHPFVFYNIKNGLITNNSLNKQLRNMCKKLGFKKIITCHGLRHTHASTMLYKGINILYVSKRLGHSSLNVTMSVYSHILKLEHHHHHH", "soluble on expression in E. coli": "not soluble"},
      {"sequence": "MWTATACSIDSSPSMWNCAEVMDSTRSELLQSTPEAEDGNIEYKLKLVNPSQYRFEHLVTQMKWRLQEGRGEAVYQIGVEDNGLLVGLAEEEMRASLKTLHRMAEKVGADITVLREREVDYDSDVPRKITEVLVRKVPDNQQFLDLRVAVLGNVDSGKSTLLGVLTQGELDNGRGRARLNLFRHLHEIQSGRTSSISFEILGFNSKGEVVNYSDSRTAEEICESSSKMITFIDLAGHHKYLHTTIFGLTSYCPDCALLLVSANTGIAGTTREHLGLALALKVPFFIVVSKVDLCAKTTVERTVRQLERVLKQPGCHKVPMLVTSEDDAVTAAQQFAQSPNVTPIFTLSSVSGESLDLLKVFLNILPPLTNSKEQEELMQQLTEFQVDEIYTVPEVGTVVGGTLSSGICREGDQLVVGPTDDGCFLELRVCSIQRNRSACRVLRAGQAATLALGDFDRALLRKGMVMVSPEMNPTICSVFEAEIVLLFHATTFRRGFQVTVHVGNVRQTAVVEKIHAKDKLRTGEKAVVRFRFLKHPEYLKVGAKLLFREGVTKGIGHVTDVQAITAGEAQATMGF", "soluble on expression in E. coli": "soluble"},
      {"sequence": "MGSSHHHHHHSSGLVPRGSHMASMYTVGDYLLDRLHELGIEEIFGVPGDYNLQFLDQIISREDMKWIGNANELNASYMADGYARTKKAAAFLTTFGVGELSAINGLAGSYAENLPVVEIVGSPTSKVQNDGKFVHHTLADGDFKHFMKMHEPVTAARTLLTAENATYEIDRVLSQLLKERKPVYINLPVDVAAAKAEKPALSLEKESSTTNTTEQVILSKIEESLKNAQKPVVIAGHEVISFGLEKTVTQFVSETKLPITTLNFGKSAVDESLPSFLGIYNGKLSEISLKNFVESADFILMLGVKLTDSSTGAFTHHLDENKMISLNIDEGIIFNKVVEDFDFRAVVSSLSELKGIEYEGQYIDKQYEEFIPSSAPLSQDRLWQAVESLTQSNETIVAEQGTSFFGASTIFLKSNSRFIGQPLWGSIGYTFPAALGSQIADKESRHLLFIGDGSLQLTVQELGLSIREKLNPICFIINNDGYTVEREIHGPTQSYNDIPMWNYSKLPETFGATEDRVVSKIVRTENEFVSVMKEAQADVNRMYWIELVLEKEDAPKLLKKMGKLFAEQNK", "soluble on expression in E. coli": "soluble"},
      {"sequence": "NIENSSLERIANILNSKLKGLTIEQINLEVINNIKKDLREYGHIFDCIMPNLYDILREADSTEVYKEGTMNIFNYPEFKDIEKAKEFLSVIDDRRILDTLFNASGGVTVNIGNENSIKEARDFSVVSSVYKYNGRPLGTIGIIGPTRIPYSKVIKVIMEVVDQINNNLDKMNNS", "soluble on expression in E. coli": "not soluble"},
      {"sequence": "MMSESNKQQAVNKLTEIVANFTAMISTRMPDDVVDKLKQLKDAETSSMGKIIYHTMFDNMQKAIDLNRPACQDTGEIMFFVKVGSRFPLLGELQSILKQAVEEATIKAPLRHNAVEIFDEVNTGKNTGSGVPWVTWDIVPDGDDAEIEVYMAGGGCTLPGRSKVLMPSEGYEGVVKFVFENISTLAVNACPPVLVGVGIATSVETAAVLSRKAILRPIGSRHPNPKAAELELRLEEGLNRLGIGPQGLTGNSSVMGVHIESAARHPSTIGVAVSTGCWAHRRGTLLVHADLTFENLSHTRSAL", "soluble on expression in E. coli": "not soluble"},
      {"sequence": "MDDQGCPRCKTTKYRNPSLKLMVNVCGHTLCESCVDLLFVRGAGNCPECGTPLRKSNFRVQLFEDPTVDKEVEIRKKVLKIYNKREEDFPSLREYNDFLEEVEEIVFNLTNNVDLDNTKKKMEIYQKENKDVIQKNKLKLTREQEELEEALEVERQENEQRRLFIQKEEQLQQILKRKNKQAFLDELESSDLPVALLLAQHKDRSTQLEMQLEKPKPVKPVTFSTGIKMGQHISLAPIHKLEEALYEYQPLQIETYGPHVPELEMLGRLGYLNHVRAASPQDLAGGYTSSLACHRALQDAFSGLFWQPS", "soluble on expression in E. coli": "soluble"},
      {"sequence": "MGHHHHHHHHHHSSGHIEGRHMANPLAGKPFYVDPASAAMVAARNANPPNAELTSVANTPQSYWLDQAFPPATVGGTVARYTGAAQAAGAMPVLTLYGIPHRDCGSYASGGFATGTDYRGWIDAVASGLGSSPATIIVEPDALAMADCLSPDQRQERFDLVRYAVDTLTRDPAAAVYVDAGHSRWLSAEAMAARLNDVGVGRARGFSLNVSNFYTTDEEIGYGEAISGLTNGSHYVIDTSRNGAGPAPDAPLNWCNPSGRALGAPPTTATAGAHADAYLWIKRPGESDGTCGRGEPQAGRFVSQYAIDLAHNAGQ", "soluble on expression in E. coli": "soluble"},
      {"sequence": "IPGPGFTAGAQGSCSLRCGAQDGLCSCHPTCSGLGTCCEDFLDYCLEILPSSGSMMGGKDFVVQHLKWTDP", "soluble on expression in E. coli": "soluble"},
      {"sequence": "ALSGGFIKGFAHLGVMQALLEHDIKPDIISGVSAGALAGVFYADGNEPHQVIEYFSGHKFQDLTKLVIPKKGLFDLCEFIDFLHTNLKAKNLEELQIPLIITATDLDHGRMVHFHRGSIAERVAASCCMPVMFAPVNIDGTNYVDGGLMMNLPVSTLRRICDKVVAVNVSPIMAQDYKMNIVSIAMRSFHFMFRANTFPEREKCDLLIEPYNLYGYSNTELEKAEEIFEQGYKIAND", "soluble on expression in E. coli": "not soluble"}
    ]}
  ]
}
